# Data reported in the RNAGym collection of RNA variant scans (doi:10.1093/molbev/msab373).
# B1: Azoarcus group I ribozyme (parent)
# chain: GUGCCUUGCGCCGGGAAACCACGCAAGGGAUGGUGUCAAAUUCGGCGAAACCUAAGCGCCCGCCCGGGCGUAUGGCAACGCCGAGCCAAGCUUCGGCGCCUGCGCCGAUGAAGGUGUAGAGACUAGACGGCACCCACCUAAGGCAAACGCUAUGGUGAAGGCAUAGUCCAGGGAGUGGCGAAAGUCACACAAACCGG
# Variants of: B1
# Assay: reverse-splicing fitness (ratio to wild type); higher = more active; in vitro selection; Mg2+ level not given
# Summary of the method: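 An in vitro group I ribozyme library with randomized positions was T7-transcribed and gel-purified. In triplicate, 10 pmol RNA in EPPS pH 7.5 was reacted with 50 pmoles of a 30-nt RNA substrate for 1 h at 37 °C across several added MgCl2 levels (1–48 mM), then stopped with EDTA. Products were reverse transcribed from a substrate-complementary primer, PCR-amplified and sequenced (HiSeq 4000). Fitness is a variant's read proportion after selection over that before, normalised to wild type.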
row,Variant,reverse-splicing fitness
1,GUGCCUUGCGCCGGGAAACCACGCAAGGGAUGGUGUCAAAUUCGGCGAAACCUAAGCGCCCGCCCGGGCGUAUGGCAACGCUGAGCCAAGCUUCGGCGCCUGCGCCGAUGGAGGUGUAGCGACUAGACGGCACCCACCUAAGGCGAACGCUAUGGUGAAGGCAUAGUCCAGGGAGAGGCGAAAGUCACACAAACCGG [C82U A111G A120C A145G U176A],0.0202
2,GUGCCUUGCGCCGGGAAACCACGCAAGGGAUGGUGUCAAAUUCGGCGAAACCUAAGCGCCCGCCCGGGCGUAUGGCAACGCUGAGCCAAGCUUCGGCGCCUGCGCCGAUGGAGGUGUAGCGACUAGACGGCACCCACCUAAGGCGAACGCUAUGGUGAAGGCAUAGUCCAGGGAGCGGCGAAAGUCACACAAACCGG [C82U A111G A120C A145G U176C],0.0318
3,GUGCCUUGCGCCGGGAAACCACGCAAGGGAUGGUGUCAAAUUCGGCGAAACCUAAGCGCCCGCCCGGGCGUAUGGCAACGCUGAGCCAAGCUUCGGCGCCUGCGCCGAUGGAGGUGUAGCGACUAGACGGCACCCACCUAAGGCUAACGAUAUGGUGAAGGCAUAGUCGAGGGAGUGGCGAAAGUCACACAAACCGG [C82U A111G A120C A145U C150A C169G],0.00798
4,GUGCCUUGCGCCGGGAAACCACGCAAGGGAUGGUGUCAAAUUCGGCGAAACCUAAGCGCCCGCCCGGGCGUAUGGCAACGCUGAGCCAAGCUUCGGCGCCUGCGCCGAUGGAGGUGUAGCGACUAGACGGCACCCACCUAAGGCUAACGAUAUGGUGAAGGCAUAGUCAAGGGAGUGGCGAAAGUCACACAAACCGG [C82U A111G A120C A145U C150A C169A],0.00739
5,GUGCCUUGCGCCGGGAAACCACGCAAGGGAUGGUGUCAAAUUCGGCGAAACCUAAGCGCCCGCCCGGGCGUAUGGCAACGCUGAGCCAAGCUUCGGCGCCUGCGCCGAUGGAGGUGUAGCGACUAGACGGCACCCACCUAAGGCUAACGAUAUGGUGAAGGCAUAGUCUAGGGAGUGGCGAAAGUCACACAAACCGG [C82U A111G A120C A145U C150A C169U],0.00709
6,GUGCCUUGCGCCGGGAAACCACGCAAGGGAUGGUGUCAAAUUCGGCGAAACCUAAGCGCCCGCCCGGGCGUAUGGCAACGCUGAGCCAAGCUUCGGCGCCUGCGCCGAUGGAGGUGUAGCGACUAGACGGCACCCACCUAAGGCUAACGCUAUGGUGAAGGCAUAGUCCAGGGAGUGGCGAAAGUCACACAAACCGG [C82U A111G A120C A145U],0.0519
7,GUGCCUUGCGCCGGGAAACCACGCAAGGGAUGGUGUCAAAUUCGGCGAAACCUAAGCGCCCGCCCGGGCGUAUGGCAACGCUGAGCCAAGCUUCGGCGCCUGCGCCGAUGGAGGUGUAGCGACUAGACGGCACCCACCUAAGGCUAACGGUAUGGUGAAGGCAUAGUCCAGGGAGUGGCGAAAGUCACACAAACCGG [C82U A111G A120C A145U C150G],0.00964
8,GUGCCUUGCGCCGGGAAACCACGCAAGGGAUGGUGUCAAAUUCGGCGAAACCUAAGCGCCCGCCCGGGCGUAUGGCAACGCUGAGCCAAGCUUCGGCGCCUGCGCCGAUGGAGGUGUAGCGACUAGACGGCACCCACCUAAGGCUAACGAUAUGGUGAAGGCAUAGUCCAGGGAGUGGCGAAAGUCACACAAACCGG [C82U A111G A120C A145U C150A],0.0105
9,GUGCCUUGCGCCGGGAAACCACGCAAGGGAUGGUGUCAAAUUCGGCGAAACCUAAGCGCCCGCCCGGGCGUAUGGCAACGCUGAGCCAAGCUUCGGCGCCUGCGCCGAUGGAGGUGUAGCGACUAGACGGCACCCACCUAAGGCUAACGGUAUGGUGAAGGCAUAGUCAAGGGAGAGGCGAAAGUCACACAAACCGG [C82U A111G A120C A145U C150G C169A U176A],0.00839
10,GUGCCUUGCGCCGGGAAACCACGCAAGGGAUGGUGUCAAAUUCGGCGAAACCUAAGCGCCCGCCCGGGCGUAUGGCAACGCUGAGCCAAGCUUCGGCGCCUGCGCCGAUGGAGGUGUAGCGACUAGACGGCACCCACCUAAGGCUAACGGUAUGGUGAAGGCAUAGUCAAGGGAGGGGCGAAAGUCACACAAACCGG [C82U A111G A120C A145U C150G C169A U176G],0.00477
11,GUGCCUUGCGCCGGGAAACCACGCAAGGGAUGGUGUCAAAUUCGGCGAAACCUAAGCGCCCGCCCGGGCGUAUGGCAACGCUGAGCCAAGCUUCGGCGCCUGCGCCGAUGGAGGUGUAGCGACUAGACGGCACCCACCUAAGGCUAACGGUAUGGUGAAGGCAUAGUCAAGGGAGCGGCGAAAGUCACACAAACCGG [C82U A111G A120C A145U C150G C169A U176C],0.00798
12,GUGCCUUGCGCCGGGAAACCACGCAAGGGAUGGUGUCAAAUUCGGCGAAACCUAAGCGCCCGCCCGGGCGUAUGGCAACGCUGAGCCAAGCUUCGGCGCCUGCGCCGAUGGAGGUGUAGCGACUAGACGGCACCCACCUAAGGCUAACGGUAUGGUGAAGGCAUAGUCGAGGGAGAGGCGAAAGUCACACAAACCGG [C82U A111G A120C A145U C150G C169G U176A],0.0063
13,GUGCCUUGCGCCGGGAAACCACGCAAGGGAUGGUGUCAAAUUCGGCGAAACCUAAGCGCCCGCCCGGGCGUAUGGCAACGCUGAGCCAAGCUUCGGCGCCUGCGCCGAUGGAGGUGUAGCGACUAGACGGCACCCACCUAAGGCUAACGGUAUGGUGAAGGCAUAGUCGAGGGAGCGGCGAAAGUCACACAAACCGG [C82U A111G A120C A145U C150G C169G U176C],0.00388
14,GUGCCUUGCGCCGGGAAACCACGCAAGGGAUGGUGUCAAAUUCGGCGAAACCUAAGCGCCCGCCCGGGCGUAUGGCAACGCUGAGCCAAGCUUCGGCGCCUGCGCCGAUGGAGGUGUAGCGACUAGACGGCACCCACCUAAGGCUAACGGUAUGGUGAAGGCAUAGUCGAGGGAGUGGCGAAAGUCACACAAACCGG [C82U A111G A120C A145U C150G C169G],0.00698
15,GUGCCUUGCGCCGGGAAACCACGCAAGGGAUGGUGUCAAAUUCGGCGAAACCUAAGCGCCCGCCCGGGCGUAUGGCAACGCUGAGCCAAGCUUCGGCGCCUGCGCCGAUGGAGGUGUAGCGACUAGACGGCACCCACCUAAGGCUAACGGUAUGGUGAAGGCAUAGUCAAGGGAGUGGCGAAAGUCACACAAACCGG [C82U A111G A120C A145U C150G C169A],0.00804
